Measured values as given in the nanobody polyreactivity screen of Harvey et al. (2022).

Experiment: yeast display, Sf9 membrane polyspecificity reagent, FACS + sequencing; frameworks hold sequencing errors
How it was run: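 Polyreactivity labels are assigned by the sorting gate from which each nanobody was recovered. The gates were low and high (top ~1%), set on anti-HA fluorescence for expression and streptavidin fluorescence for reagent binding. Before sorting, galactose-induced (36–48 hours) yeast display cells were stained for 1 hour at 4 °C with 10% biotinylated, detergent-solubilized Sf9 membrane reagent.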
In the case of “QVQLVGSGGGLVQAGGSLRLSCAASGLTFNWYAMGWYRQAPGKERELVASVSKRGGSTYYADSVKGRFTISRDNAKNNVYLQMNSLKPEDTAVYYCAASRYPSYDYWGQGTQVTVSS”, the “polyreactivity (PSR sort gate)” value is reported as “high polyreactivity”.
For “QVQLVKSGGGLVQAGGSLRLSCAASGGTFSFYTMGWYRQAPGKERELVAAIDSTGRTNYADSVKGRFTISRDNANHTVYLQMNSLKPEDTAVYYCAAGPPRADYDYWGQGTQVNVSS”, the “polyreactivity (PSR sort gate)” value was “low polyreactivity”.
In the case of “QVQLVKSGGGLVQAGGSLRLSCAASGSTFYNAMGWYRQAPGKEREWVAAISIGGSTYYADSVKGRFTISRDNAKNTVYLQMNSLKPEDTAVYYCNSDLYYWLRYYDRNDYWGQGTQVTVSS”, the “polyreactivity (PSR sort gate)” value is reported as “low polyreactivity”.
In the case of “QVQLVKSGGGLVQAGGSLRLSCAASRFIIPEYTMGWYRQAPGKARELVAAISGSGGSTYYADSVKGRFTISRDNAKHTVYLQMNSLKPEDTAVYYCATAFIVPFPGSDYWGQGTQVTVSS”, the “polyreactivity (PSR sort gate)” value is reported as “low polyreactivity”.
In the case of “QVQLVQSGGGFVQAGGSLRVSCAASGRTFGVYAMGWYRQAPGKEREFVAAISYSGGRTYYADSVKGRFTISRDNAKNTVYLQMNSLKPEDTAVYSCNARAFPYYRRFDYWGQGTQVTVSS”, the “polyreactivity (PSR sort gate)” value is reported as “high polyreactivity”.
With “QVQLVQSGGGLLQAGGSLRLSCAASGSINIYNDMGWNRQATGKERELVAAITSSGGSTYYADSVKGGFTISRDNGKNTVYLQMNSLKPEDTAVYYCAADYVDHKVWYDYWGHGTQVTVSS” the “polyreactivity (PSR sort gate)” value was “low polyreactivity”.
For “QVQLVQSGGGLLQAGGSLRLSSAASGYTFGYYARGCYREAPGQERELVAAITSGGTTNYADTVKGRFTISRDNAKNTVYLQINSLKPEDTAVSYCNAVCTFVRYWTDGRDGVTYDYWGQGTQVTVSS”, the “polyreactivity (PSR sort gate)” value was “low polyreactivity”.
For “QVQLVQSGGGLVQAGGSLRLICAASGSIFLYYAMGWYRQAPAKERELVAGIRRGGRKNYADSVKGRFTISRDNSKNTVYLQLNSLKPEDTGVYYCAKGGYWGQCTQVTVSS”, the “polyreactivity (PSR sort gate)” value was “high polyreactivity”.
In the case of “QVQLVQSGGGLVQAGGSLRLSCAASGRTFSKYVLGWYRQAPGKERQLVAAITYSGGYTYYADSVKGRFTISRDNAKNTVYLQMYSLKPEDTAVYYCAAESYAHVSNGYDYWGQGTQVTVSS”, the “polyreactivity (PSR sort gate)” value is reported as “low polyreactivity”.
For “QVQLVQSGGGLVQAGGSLRLSCAASGSIFYDYAMGWYRQAPGKERELVAAINSGVSTSYADSVKGRFTISRDNAKNTVYLQMNSLKPEDTAVYYCAKDGSSPSPWYGGFGYWGQGTQVTVSS”, the “polyreactivity (PSR sort gate)” value was “low polyreactivity”.
For “QVQLVQSGGGLVQAGGSLRLSCAASGSIINKYAMGWYRQAPGKERELVAAISFSGGSTYYADSVKGRFTISRDNAKITVYLQMNSLKPEDTAVYYCAAYHRPYQSYYWGKGTQVTVSS”, the “polyreactivity (PSR sort gate)” value was “high polyreactivity”.
With “QVQLVQSGGGLVQAGGSLRLSCAASGSTFYLNAMGLYIQAPGKERELLAAITDAGSTNYADSVKGRFTISRDNAKNTVYLQMNSLKPEDTAVYYCNAEPRYYSGGHGYDYWGQGTQVTVSS” the “polyreactivity (PSR sort gate)” value was “low polyreactivity”.
In the case of “QVQLVQSGGGLVQAGGSLRLSCAASGSTFYTYGLGWYRQAPGKARQFVAAISYRGGSTYYADSVKGRFTISRDNAKNTVYLQMNSLKPEVTAVYYCYVDGVVVGTIRGGYDYWGQGTQVTVSS”, the “polyreactivity (PSR sort gate)” value is reported as “low polyreactivity”.
For “QVQLVQSGGGLVQAGGSLRLSCAASGYIFNFNPMGWNRQAPGKERELVAVISDRDDTTYYADSVKGRFTISRDNAKNTVYLQMNSMKPEDTAVYYCAAVGDTYVDDQYDYWGQGTQVTVSS”, the “polyreactivity (PSR sort gate)” value was “low polyreactivity”.
With “QVQLVQSGGGLVQAGGSLRLSCAATGSTFRIYAIGWYRQAPGKEREFVAAISDRGGRTYYADSVKGRFTISRDNAKNTVYLQMNSLKPEDTAVYYCAAVKLLSSAPGDDGQMNYWGQGTQVTVSS” the “polyreactivity (PSR sort gate)” value was “low polyreactivity”.
With “QVQLVQSGGGLVQAGGSLSLSCAASGRIFGINAMGWYRQAPGKESELVAAISSGGSTYYADSVKGRFTISLDNAKNTVYLQMNSLKPEDTAVYYCAADYDSYVSHDRGVWRDYWGQGTQVTVSS” the “polyreactivity (PSR sort gate)” value was “low polyreactivity”.
For “QVQLVQSRGGLVQAGGSLRLSCAASGYIFWYYVKGWNRQAPGKERELVASITIGGGRTYYADSVKGRFTISRDFAKNSVYLQMNCMKPEDTAVYYCAAVTTPYNSDFDYWGQGTQVTVSS”, the “polyreactivity (PSR sort gate)” value was “low polyreactivity”.
With “QVQLVQTGRGLVQAGGSLRLICAASGIIFKYYGMGWYRQAPGKERELVAAITDRGGSTYYADSVKGRFTISRDHAKNTVYLQMNSLKPEDTAVYYCSAVPSSGKSGFRGGYWGQVTQVTVSS” the “polyreactivity (PSR sort gate)” value was “high polyreactivity”.
For “QVQLVVSGGGLVQAGCTHRISCAPSGRISKLYAMGWSIPAPGKERELVAAISWRGGSTYYADSVKGRFTISRDNAKITVYLQLYSLKPEDTAVYFCNKAYPADDDYWGQGTQVSVSS”, the “polyreactivity (PSR sort gate)” value was “low polyreactivity”.
For “QVQLVVSGGGLVQAGGILRFSCAASGRTIWYNAMGWYRQAPGKERELVASISRSGGSTYYADSVKGRFTISRDNAKNTVYLQMNSLKPEDTAVYYCAAESFDYTTWYGYWGQGTQVTVSS”, the “polyreactivity (PSR sort gate)” value was “high polyreactivity”.
For “QVQLVVSGGGLVQAGGRLRLSCAASGSSFVGYAMGWYRQAPGKERELVAAISRRGGSTYYADSVKGRFTISRDNAKNTVYLQMNRLKPEDTSVYYFAARFKVSYYNLYSYGYWRQGTQVTVSS”, the “polyreactivity (PSR sort gate)” value was “high polyreactivity”.
In the case of “QVQLVVSGGGLVQAGGSLRLSCAASGITFYEYAMGWYRQSPGKESELVATITSGGNTNYADSVKGRFTISRDNAKNTGYLLMNSLIPEDTSVYYCAASVGYYSRYGYGYWGQGTQVTVSS”, the “polyreactivity (PSR sort gate)” value is reported as “low polyreactivity”.
With “QVQLVVSGGGLVQAGGSLRLSCAASGLTFWKYTLGWYRQAPGKEREWVAAMSISGTNTYYADSVKGRFTISRDNAKNTVYLQMNSLKPEDTAVYYCAAVRGYPPTNYYYCGQGTQVTVSS” the “polyreactivity (PSR sort gate)” value was “high polyreactivity”.
In the case of “QVQLVVSGGGLVQAGGSLRLSCAASGRIFVANAMGWYRQAPGKERELVAAISGRGSRTYYADSVKGRFTISRDNAKNTVYLQMNSLKPEDTAVYYCAARYRYDGRYDYWGQGTQVTVSS”, the “polyreactivity (PSR sort gate)” value is reported as “high polyreactivity”.
In the case of “QVQLVVSGGGLVQAGGSLRLSCAASGRIIFWYALGWYRQAPGKERELVAGITSGGSTNYADSVKGRFTISRDNAKNTVYLQMMRLKPEVTAVYYCNTVDSIPIGSGLYYYWGQGTQVTVSS”, the “polyreactivity (PSR sort gate)” value is reported as “low polyreactivity”.
With “QVQLVVSGGGLVQAGGSLRLSCAASGSIFGENAMGWYRQAPGKERELVAAITWSGASTYYADSVKGRFTISRDNAKNTVFLKMNSLKPEDTAVYYCNDDRFVRFSTFDYWGQGTQVTVSS” the “polyreactivity (PSR sort gate)” value was “high polyreactivity”.
In the case of “QVQLVVSGGGLVQAGGSLRLSCAASGSTFSRNAMGWYRQAPGKERELVASISWSGARTYYADSVKRRFTISRDNAKNTVYLQMNSLKPEDTAVYYCAKFRSYRGPYNFWGQGTQVTVSS”, the “polyreactivity (PSR sort gate)” value is reported as “high polyreactivity”.
For “QVQLVVSGGGLVQAGGSLRLSCAASGSTLVIYAMGGYRQAPGKERELVAAIRRTGGSTYYADSVKGRFTISRDNAKTTVDLQKNSLKPEDTAVYYCAKRSYTGYEYWGQGTQETVSS”, the “polyreactivity (PSR sort gate)” value was “low polyreactivity”.
For “QVQLVVSGGGLVQAGGSLRLSCAPSGRTFKPYVMGWYRQAPGKERELVAAISSRGGSTYYADSVKGRFTISRDNEKTTVFLQMNSLKPEDTAVYYCNAAYWFSNKNGYWGQGTQVTVSS”, the “polyreactivity (PSR sort gate)” value was “high polyreactivity”.
With “QVQLVVSGGGLVQAGGSLSLSWDASGRTFARYTMGWYRQAPGKERELVASITRGGSPYYADSVKGRFTISRDNAKNYVYLQMNSLKAEDSSVFYCAARFPQHNYWAMDYCGQGTQVTVSS” the “polyreactivity (PSR sort gate)” value was “high polyreactivity”.
In the case of “QVQLVVSRGGLVQAGGSLRLSCAASGSTFYYNAMGWYRQAPGKERELVAAISRSGGRTYYADSVKGRFTISRDNAKNTVYLQMNSLKPEDTAVYYCAAEYFDWWVTYDYWGQGTQVTVSS”, the “polyreactivity (PSR sort gate)” value is reported as “high polyreactivity”.
In the case of “QVQLVYSGGGLVQAGGSLRISCAPSGRTYRKYAMGWYIQAPGKERELVAANSRSGGSTYYANSVKGRFTISRDIAKNTFYLQMNSLKPDDTAVYYCAAVPVHTGSLYWGFTTGYDYWGQVTQVTVSS”, the “polyreactivity (PSR sort gate)” value is reported as “low polyreactivity”.
In the case of “QVQLVYSGGGLVQAGGSLRLSCAASGLILWPYTMGWYRQSPWKERELVAAISSSGGSTYYADSVKGRFTISRDNAKNTVYLQMNSLKPEDTAVYYCAAVCWVISGKNGAGSMDYWGLGTQVTVSS”, the “polyreactivity (PSR sort gate)” value is reported as “high polyreactivity”.
For “QVQLVYSGGGLVQAGGSLRLSCAASGSTFQAYDMGWYRQAPGKERELVAAITTGGSTNYADSVKGRFTISRDNAKNTVYLQLNSLKPEDTAVYYCNADFIYVLYYVVLYDYWGQGTQVTVSS”, the “polyreactivity (PSR sort gate)” value was “low polyreactivity”.
With “QVQLVYSRRGLVQAGGSLRLSCAASGLIFAWYAIGWYRQATVNVRELVATISWNGDRTYYADSVKGRFTIARDNGKTSVYLQINSLQAEDTAVYYCAAYSVFRSYDYWGQGTQVTVSS” the “polyreactivity (PSR sort gate)” value was “high polyreactivity”.
For “QVQNVESGGGLVQAGGSLRLICAASGSIFDPYAMGRYRQAPGKEMELVAAIRKRGSSTYYADSVKGRFTISRDNAKYTVYLQMNSLKPEDTAVYYCAATWVSVWYRYDYWGQGTQVTVSA”, the “polyreactivity (PSR sort gate)” value was “high polyreactivity”.
With “QVQPVESGAGLVQAGGSLRLSCAASGSIFWSYAMGLYRQAPGKERELVAAITTSDGSTYYADSVKWRFTISRDNAKNTVYLQMNSLKPEDTAVYYCAADTYYVSYGYYYWGQGTQVTVSS” the “polyreactivity (PSR sort gate)” value was “low polyreactivity”.
For “QVQQQESGGGLVQAGGILRMSCAASGTIFSEANMGSYRQAPGKERELVATIGQGSTTNYADSVKGRFTISRDNAKNTVYLQMNSLKPEETAVYYCAVVNVDPVGFVYWGQGTQVTVSS”, the “polyreactivity (PSR sort gate)” value was “low polyreactivity”.
For “QVQQQESGGGLVQAGGSLRLSCAASGSIFDGFNMGWYRQAPGKEREFVAAISYGASTYYADIVKGRFTDSRDNAKYSVYLQMIRLKPEDTAVYYCAVYDELYHVLVYWGRGTQVTVSS”, the “polyreactivity (PSR sort gate)” value was “low polyreactivity”.
For “QVQQQESGGGLVQAGGSLRLSCAASGTIFQLTVMGRYRQAPGKERELVASIDYGGNTNYADSVKGRFTISRDNAKNTVYLQMNSLKPEDTAVYYCAASSDSWTTHPYWGQGTQVTVSS”, the “polyreactivity (PSR sort gate)” value was “low polyreactivity”.
With “QVQQQESGGGLVQAGGSLRLSCAASGTIFQLTVMRRYRQAPGKERELVASIDYGGNTNYADSVKGRFTISRDNAKNTVYLQMNSLKPEDTAVYYCAASSDSWTTHPYWGQGTQVTVSS” the “polyreactivity (PSR sort gate)” value was “low polyreactivity”.
In the case of “QVQQQESGGGLVQAGGSLRLSCAASGTILYSLGMGWYRQAPGKRREFVASITWGTTTNYAESVKGRFTISRDNAKNTVYPQMNSLKPEDTAVYYCNKSSTGWTSTYDYWGQGTQVTVSS”, the “polyreactivity (PSR sort gate)” value is reported as “low polyreactivity”.
In the case of “QVQQQESGGGLVQAVGSLRLSCAASGTIIQLTVMGRYRQAPGKERELVASIDYGGNTNYADSVKGRFTISRDNAKNTVYLHMNSLKPEDTAVYYCAKESRPAEGDSGYDYWGQGTLVTVSS”, the “polyreactivity (PSR sort gate)” value is reported as “low polyreactivity”.
